Experimental data published in article PMC3504387 (Chemmedchem, 2012).
Where no end group is shown, it is not given here. The star is where a group is joined. Biotin = O=C1N[C@H]2[C@H](CS[C@H]2CCCCC(=O)*)N1; Ahx = NCCCCCC(=O)O

T1: GST–PPARα fusion protein (purified ligand binding domain of PPARα)
T1 sequence (Q07869 whole entry, species assumed, looked up): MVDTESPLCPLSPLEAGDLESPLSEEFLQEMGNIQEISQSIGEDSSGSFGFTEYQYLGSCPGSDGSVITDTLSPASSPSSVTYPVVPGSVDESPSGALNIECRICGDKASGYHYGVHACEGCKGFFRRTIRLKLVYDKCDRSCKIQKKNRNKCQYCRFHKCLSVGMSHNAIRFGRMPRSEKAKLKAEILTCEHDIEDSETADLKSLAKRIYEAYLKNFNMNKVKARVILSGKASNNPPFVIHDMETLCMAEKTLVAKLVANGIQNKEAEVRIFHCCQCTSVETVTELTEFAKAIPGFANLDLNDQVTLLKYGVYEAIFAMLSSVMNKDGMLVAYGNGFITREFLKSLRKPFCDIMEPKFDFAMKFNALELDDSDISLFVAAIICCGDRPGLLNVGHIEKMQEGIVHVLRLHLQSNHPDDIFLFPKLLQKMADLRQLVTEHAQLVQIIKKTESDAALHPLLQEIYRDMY

T2: GST–PPARγ fusion protein (purified ligand binding domain of PPARγ)
T2 chain: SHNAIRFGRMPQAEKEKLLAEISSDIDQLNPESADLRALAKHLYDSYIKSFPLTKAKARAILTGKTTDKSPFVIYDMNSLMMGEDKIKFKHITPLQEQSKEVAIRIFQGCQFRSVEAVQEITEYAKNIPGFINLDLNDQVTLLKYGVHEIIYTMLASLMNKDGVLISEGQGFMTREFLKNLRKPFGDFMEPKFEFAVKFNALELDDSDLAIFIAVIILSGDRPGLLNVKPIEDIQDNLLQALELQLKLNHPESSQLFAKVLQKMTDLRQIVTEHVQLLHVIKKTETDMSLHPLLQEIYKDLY

B1: SMRT ID2 cofactor peptide (silencing mediator of retinoid and thyroid hormone receptors, interaction domain 2) (peptide)
peptide: {Biotin-Ahx}-AVQEHASTNMGLEAIIRKALMGKYD
notes: silencing mediator of retinoid and thyroid hormone receptors (SMRT), ID2, residues 2331-2355; also called SMRT2; source: synthetic peptide (Jerini or Biosynthan, Berlin)
B2: RAC3_M2 cofactor peptide (receptor-associated co-activator 3, motif 2) (peptide)
peptide: {Biotin-Ahx}-SNMHGSLLQEKHRILHKLLQNGNSP
notes: source: synthetic peptide (Jerini or Biosynthan, Berlin)
B3: SRC1_M1 cofactor peptide (steroid receptor co-activator 1, motif 1) (peptide)
peptide: {Biotin-Ahx}-DSKYSQTSHKLVQLLTTTAEQQLRH
notes: as for B2
B4: TIF2_M2 cofactor peptide (transcriptional intermediary factor 2, motif 2) (peptide)
peptide: {Biotin-Ahx}-STHGTSLKEKHKILHRLLQDS
B5: RAC3_M3 cofactor peptide (receptor-associated co-activator 3, motif 3) (peptide)
peptide: {Biotin-Ahx}-PKKENNALLRYLLDRDDPSDV
notes: as for B2
B6: SRC1_M3 cofactor peptide (steroid receptor co-activator 1, motif 3) (peptide)
peptide: {Biotin-Ahx}-LDASKKKESKDHQLLRYLLDKDEKD
notes: as for B2
B7: TIF2_M3 cofactor peptide (transcriptional intermediary factor 2, motif 3) (peptide)
peptide: {Biotin-Ahx}-SPKKKENALLRYLLDKDDTK
B8: TIF2_M1 cofactor peptide (transcriptional intermediary factor 2, motif 1) (peptide)
peptide: {Biotin-Ahx}-SRLHDSKGQTKLLQLLTTKSD
notes: transcriptional intermediary factor 2 (TIF2), motif 1, residues 630-650; source: synthetic peptide (Jerini or Biosynthan, Berlin)

What was measured:
[1] = molecular target: T1, GST–PPARα fusion protein (purified ligand binding domain of PPARα); assay: FRET or BRET; homogeneous TR-FRET as a1, 12-concentration dose–response of muraglitazar; the EC50 is of the compound; delta ratio in % of the reference compound at 10 μM (RO4899100 for PPARα, edaglitazone for PPARγ)
[2] = molecular target: T1, GST–PPARα fusion protein (purified ligand binding domain of PPARα); assay: FRET or BRET; homogeneous TR-FRET as a1, 12-concentration dose–response of aleglitazar; the EC50 is of the compound; delta ratio in % of the reference compound at 10 μM (RO4899100 for PPARα, edaglitazone for PPARγ)
[3] = molecular target: T2, GST–PPARγ fusion protein (purified …); assay: FRET or BRET; homogeneous TR-FRET as a1, 12-concentration dose–response of tesaglitazar; the EC50 is of the compound; delta ratio in % of the reference compound at 10 μM (RO4899100 for PPARα, edaglitazone for PPARγ); settings: both partners purified
[4] = molecular target: T2, GST–PPARγ fusion protein (purified …); assay: FRET or BRET; homogeneous TR-FRET as a1, 12-concentration dose–response of edaglitazone; the EC50 is of the compound; delta ratio in % of the reference compound at 10 μM (RO4899100 for PPARα, edaglitazone for PPARγ); settings: both partners purified
[5] = molecular target: T2, GST–PPARγ fusion protein (purified …); assay: FRET or BRET; homogeneous TR-FRET as a1, 12-concentration dose–response of farglitazar; the EC50 is of the compound; delta ratio in % of the reference compound edaglitazone at 10 μM; settings: both partners purified
[6] = molecular target: T2, GST–PPARγ fusion protein (purified …); assay: FRET or BRET; homogeneous TR-FRET as a1, 12-concentration dose–response of rosiglitazone; the EC50 is of the compound; delta ratio in % of the reference compound at 10 μM (RO4899100 for PPARα, edaglitazone for PPARγ); settings: both partners purified
[7] = molecular target: T2, GST–PPARγ fusion protein (purified …); assay: FRET or BRET; homogeneous TR-FRET as a1, 12-concentration dose–response of pioglitazone; the EC50 is of the compound; delta ratio in % of the reference compound at 10 μM (RO4899100 for PPARα, edaglitazone for PPARγ); settings: both partners purified
[8] = molecular target: T1, GST–PPARα fusion protein (purified ligand binding domain of PPARα); assay: FRET or BRET; homogeneous TR-FRET as a1, 12-concentration dose–response of edaglitazone; the EC50 is of the compound; delta ratio in % of the reference compound at 10 μM (RO4899100 for PPARα, edaglitazone for PPARγ)
[9] = molecular target: T2, GST–PPARγ fusion protein (purified …); assay: FRET or BRET; homogeneous TR-FRET as a1, 12-concentration dose–response of aleglitazar; the EC50 is of the compound; delta ratio in % of the reference compound at 10 μM (RO4899100 for PPARα, edaglitazone for PPARγ); settings: both partners purified
[10] = molecular target: T2, GST–PPARγ fusion protein (purified …); assay: FRET or BRET; homogeneous TR-FRET as a1, 12-concentration dose–response of muraglitazar; the EC50 is of the compound; delta ratio in % of the reference compound at 10 μM (RO4899100 for PPARα, edaglitazone for PPARγ); settings: both partners purified
[11] = molecular target: T1, GST–PPARα fusion protein (purified ligand binding domain of PPARα); assay: FRET or BRET; homogeneous TR-FRET as a1, 12-concentration dose–response of RO4899100; the EC50 is of the compound; delta ratio in % of the reference compound at 10 μM (RO4899100 for PPARα, edaglitazone for PPARγ)
[12] = molecular target: T1, GST–PPARα fusion protein (purified ligand binding domain of PPARα); assay: FRET or BRET; homogeneous TR-FRET as a1, 12-concentration dose–response of tesaglitazar; the EC50 is of the compound; delta ratio in % of the reference compound at 10 μM (RO4899100 for PPARα, edaglitazone for PPARγ)
[13] = molecular target: T1, GST–PPARα fusion protein (purified ligand binding domain of PPARα); assay: FRET or BRET; homogeneous TR-FRET as a1, 12-concentration dose–response of rosiglitazone; the EC50 is of the compound; delta ratio in % of the reference compound at 10 μM (RO4899100 for PPARα, edaglitazone for PPARγ)
[14] = molecular target: T1, GST–PPARα fusion protein (purified ligand binding domain of PPARα); assay: FRET or BRET; homogeneous TR-FRET as a1, 12-concentration dose–response of fenofibric acid; the EC50 is of the compound; delta ratio in % of the reference compound RO4899100 at 10 μM

| Binder | delta ratio with muraglitazar [1] [%] | delta ratio with aleglitazar [2] [%] | delta ratio with edaglitazone [8] [%] | delta ratio with tesaglitazar [12] [%] | EC50 of tesaglitazar for recruitment [3] [nM] | EC50 of edaglitazone for recruitment [4] [nM] | EC50 of farglitazar for recruitment [5] [nM] | EC50 of rosiglitazone for recruitment [6] [nM] | EC50 of pioglitazone for recruitment [7] [nM] | EC50 of aleglitazar for recruitment [9] [nM] | EC50 of muraglitazar for recruitment [10] [nM] | EC50 of muraglitazar for recruitment [1] [nM] | EC50 of aleglitazar for recruitment [2] [nM] | EC50 of fenofibric acid for recruitment [14] [nM] | delta ratio with fenofibric acid [14] [%] | EC50 of edaglitazone for recruitment [8] [nM] | EC50 of RO4899100 for recruitment [11] [nM] | EC50 of tesaglitazar for recruitment [12] [nM] | other results |
| --- | --- | --- | --- | --- | --- | --- | --- | --- | --- | --- | --- | --- | --- | --- | --- | --- | --- | --- | --- |
| B1 | -28 | -51 | -20 | -26 | – | – | – | – | – | – | – | – | – | – | – | – | – | – | EC50 of muraglitazar for displacement [1]: 563 nM; EC50 of aleglitazar for displacement [2]: 14.1 nM; EC50 of tesaglitazar for displacement [3]: 346 nM; EC50 of edaglitazone for displacement [4]: 41.6 nM; EC50 of farglitazar for displacement [5]: 11.6 nM; EC50 of rosiglitazone for displacement [6]: 333 nM; EC50 of pioglitazone for displacement [7]: 3700 nM; EC50 of edaglitazone for displacement [8]: 790 nM; EC50 of aleglitazar for displacement [9]: 14.4 nM; EC50 of muraglitazar for displacement [10]: 60.3 nM; EC50 of RO4899100 for displacement [11]: 108 nM; EC50 of tesaglitazar for displacement [12]: 1780 nM |
| B2 | – | – | – | – | 110 | 22.7 | 6.5 | 125 | 1070 | 7.4 | 16.5 | – | – | – | – | – | – | – | – |
| B3 | 74 | 94 | 41 | – | 226 | 38.1 | 8.6 | 240 | 2260 | 11 | 35.6 | 186 | 2.9 | 4360 | 39 | 867 | 16.1 | 427 | EC50 of rosiglitazone for recruitment [13]: 2630 nM; delta ratio with rosiglitazone [13]: 20% |
| B4 | 33 | 53 | 21 | 54 | – | – | – | – | – | – | – | 34 | 1.6 | 5200 | 44 | 294 | 5.9 | 182 | delta ratio with RO4899100 [11]: 100% |
| B5 | 35 | 62 | 24 | 60 | 233 | 33.1 | – | 271 | 1860 | 9.5 | 39.5 | 330 | 4.4 | – | – | 1920 | 25.9 | 941 | – |
| B6 | 23 | 53 | – | 52 | 196 | 38.1 | 12.1 | 241 | 2120 | 11.3 | 37.4 | 8.4 | 2.4 | 3450 | 47 | – | 4.9 | 111 | EC50 of rosiglitazone for recruitment [13]: 3070 nM; delta ratio with rosiglitazone [13]: 21% |
| B7 | 29 | 56 | 32 | 53 | – | – | – | – | – | – | – | 88.9 | 2.3 | 1290 | 25 | 3670 | 12.7 | 377 | delta ratio with RO4899100 [11]: 100% |
| B8 | 31 | 53 | 26 | 70 | 274 | 86.5 | 16.1 | 951 | – | 43.2 | 94.3 | 96.5 | 2.1 | 2160 | 34 | 945 | 8.6 | 326 | – |
